Columns and labels:
[1] = target: T1, recombinant human CD32a H131 allele (human, UniProt P12318 36-218, limits assumed, site-specific biotinylation (site not stated)); test: SPR (Biacore 8K), receptor captured on the chip via site-specific biotinylation; qualitative assessment
T1 construct: also called FcγRIIA H131
T1 sequence (looked up): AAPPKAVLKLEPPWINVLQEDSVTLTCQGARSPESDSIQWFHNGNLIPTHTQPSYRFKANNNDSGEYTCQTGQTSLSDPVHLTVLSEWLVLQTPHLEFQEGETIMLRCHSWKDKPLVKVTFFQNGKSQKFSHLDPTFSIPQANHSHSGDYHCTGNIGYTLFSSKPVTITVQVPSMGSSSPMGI

[2] = target: T2, recombinant human CD16a V158 allele (human, UniProt P08637 17-208, site-specific biotinylation (site not stated)); test: as above
T2 construct: also called FcγRIIIA V158
T2 sequence (P08637 17-208 F176V limits assumed): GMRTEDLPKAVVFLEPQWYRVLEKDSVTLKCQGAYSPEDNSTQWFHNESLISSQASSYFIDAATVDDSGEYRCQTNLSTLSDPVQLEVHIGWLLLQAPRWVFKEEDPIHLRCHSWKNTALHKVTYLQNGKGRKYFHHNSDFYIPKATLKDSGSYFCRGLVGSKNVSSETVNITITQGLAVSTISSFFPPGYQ

recombinant human CD64 = target: T3, recombinant human CD64 (human, UniProt P12314 16-288, limits assumed, site-specific biotinylation (site not stated)); test: as above
T3 construct: also called FcγRI
T3 sequence (P12314 16-288 limits assumed): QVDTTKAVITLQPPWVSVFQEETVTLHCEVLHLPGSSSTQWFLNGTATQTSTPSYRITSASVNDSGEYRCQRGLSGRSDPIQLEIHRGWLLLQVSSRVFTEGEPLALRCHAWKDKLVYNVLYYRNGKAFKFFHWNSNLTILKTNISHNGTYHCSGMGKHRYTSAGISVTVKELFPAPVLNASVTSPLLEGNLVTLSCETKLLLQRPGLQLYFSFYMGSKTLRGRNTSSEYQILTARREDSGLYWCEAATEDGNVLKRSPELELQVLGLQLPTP

recombinant human CD16b = target: T4, recombinant human CD16b (human, UniProt O75015 17-200, site-specific biotinylation (site not stated)); test: as above
T4 construct: also called FcγRIIIB
T4 sequence (O75015 17-200 limits assumed): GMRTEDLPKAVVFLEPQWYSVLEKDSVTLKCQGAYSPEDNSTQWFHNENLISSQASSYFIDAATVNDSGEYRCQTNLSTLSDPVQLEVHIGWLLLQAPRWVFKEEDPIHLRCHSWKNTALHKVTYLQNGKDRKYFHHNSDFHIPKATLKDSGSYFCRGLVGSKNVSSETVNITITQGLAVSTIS

recombinant human CD32b = target: T5, recombinant human CD32b (human, UniProt P31994 46-217, limits assumed, site-specific biotinylation (site not stated)); test: as above
T5 construct: also called FcγRIIB
T5 sequence (looked up): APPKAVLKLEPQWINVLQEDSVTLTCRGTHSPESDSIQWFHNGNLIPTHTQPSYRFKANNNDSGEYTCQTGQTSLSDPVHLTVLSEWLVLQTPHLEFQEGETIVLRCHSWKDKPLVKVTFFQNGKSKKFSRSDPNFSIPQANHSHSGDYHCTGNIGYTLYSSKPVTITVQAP

[3] = target: T6, recombinant human CD32a R131 allele (human, UniProt P12318 36-218, limits assumed, site-specific biotinylation (site not stated)); test: as above
T6 construct: also called FcγRIIA R131
T6 sequence (looked up): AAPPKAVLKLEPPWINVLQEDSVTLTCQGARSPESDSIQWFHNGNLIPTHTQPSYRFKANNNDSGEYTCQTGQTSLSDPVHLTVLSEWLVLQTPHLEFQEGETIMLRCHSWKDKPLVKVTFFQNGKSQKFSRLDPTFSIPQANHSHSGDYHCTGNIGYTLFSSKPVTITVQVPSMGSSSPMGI

[4] = target: T7, recombinant human CD16a F158 allele (human, UniProt P08637 17-208, site-specific biotinylation (site not stated)); test: as above
T7 construct: also called FcγRIIIA F158
T7 sequence (P08637 17-208 limits assumed): as the sequence (P08637 17-208 F176V limits assumed) above, with V160F counted along it

[5] = target: recombinant cynomolgus CD16 (cynomolgus, UniProt Q8SPW2 17-208, site-specific biotinylation (site not stated)); test: as above
recombinant cynomolgus CD16, sequence (Q8SPW2 17-208 limits assumed): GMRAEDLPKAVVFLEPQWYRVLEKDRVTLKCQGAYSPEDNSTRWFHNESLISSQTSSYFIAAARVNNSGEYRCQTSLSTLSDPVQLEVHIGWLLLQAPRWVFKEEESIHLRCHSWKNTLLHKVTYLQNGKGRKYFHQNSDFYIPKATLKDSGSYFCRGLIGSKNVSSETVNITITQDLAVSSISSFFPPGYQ

human FcRn = human FcRn (human, UniProt P55899 24-297; P61769 21-119); test: FcRn binding at pH 6.0, reference IgG1 isotype control trastuzumab (method not stated in the paragraph)
cynomolgus monkey FcRn = cynomolgus monkey FcRn (cynomolgus monkey, UniProt Q8SPV9 24-297; Q8SPW0 21-119); test: as above
cynomolgus monkey FcRn, sequence (Q8SPV9 24-297 limits assumed, chain 1 of 2): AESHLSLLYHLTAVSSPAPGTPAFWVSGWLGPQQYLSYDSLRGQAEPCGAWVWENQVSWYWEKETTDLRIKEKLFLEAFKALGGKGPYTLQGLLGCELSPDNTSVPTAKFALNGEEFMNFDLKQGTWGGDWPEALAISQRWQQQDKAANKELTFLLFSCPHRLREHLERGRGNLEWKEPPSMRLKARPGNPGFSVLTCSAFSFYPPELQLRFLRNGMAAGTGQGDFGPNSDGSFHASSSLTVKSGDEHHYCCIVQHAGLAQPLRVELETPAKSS
cynomolgus monkey FcRn, sequence (Q8SPW0 21-119 limits assumed, chain 2 of 2): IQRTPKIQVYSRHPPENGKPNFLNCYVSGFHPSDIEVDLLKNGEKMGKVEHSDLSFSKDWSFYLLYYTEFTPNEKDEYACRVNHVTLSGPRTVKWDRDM

binding result [1]: no binding | binding result [2]: no binding | binding result (recombinant human CD64): no binding | binding result (recombinant human CD16b): no binding | binding result (recombinant human CD32b): no binding | binding result [3]: no binding | binding result [4]: no binding | binding result [5]: no binding | fold difference in binding affinity value against trastuzumab (human FcRn): < 1.5 fold | fold difference in binding affinity value against trastuzumab (cynomolgus monkey FcRn): < 1.5 fold
B1: DF-hIL-12-Fc si (Fc fusion)
chain 1: IWELKKDVYVVELDWYPDAPGEMVVLTCDTPEEDGITWTLDQSSEVLGSGKTLTIQVKEFGDAGQYTCHKGGEVLSHSLLLLHKKEDGIWSTDILKDQKEPKNKTFLRCEAKNYSGRFTCWWLTTISTDLTFSVKSSRGSSDPQGVTCGAATLSAERVRGDNKEYEYSVECQEDSACPAAEESLPIEVMVDAVHKLKYENYTSSFFIRDIIKPDPPKNLQLKPLKNSRQVEVSWEYPDTWSTPHSYFSLTFCVQVQGKSKREKKDRVFTDKTSATVICRKNASISVRAQDRYYSSSWSEWASVPCSPKSSDKTHTCPPCPAPEAAGGPSVFLFPPKPKDTLMISRTPEVTCVVVDVSHEDPEVKFNWYVDGVEVHNAKTKPREEQYNSTYRVVSVLTVLHQDWLNGKEYKCKVSNKALAAPIEKTISKAKGQPREPQVCTLPPSRDELTENQVSLTCLVKGFYPSDIAVEWESNGQPENNYKTTPPVLDSDGSFFLYSWLTVDKSRWQQGNVFSCSVMHEALHNHYTQKSLSLSPG
chain 2: RNLPVATPDPGMFPCLHHSQNLLRAVSNMLQKARQTLEFYPCTSEEIDHEDITKDKTSTVEACLPLELTKNESCLNSRETSFITNGSCLASRKTSFMMALCLSSIYEDLKMYQVEFKTMNAKLLMDPKRQIFLDQNMLAVIDELMQALNFNSETVPQKSSLEEPDFYKTKIKLCILLHAFRIRAVTIDRVMSYLNASGGGGSGGGGSGGGGSEPKSSDKTHTCPPCPAPEAAGGPSVFLFPPKPKDTLMISRTPEVTCVVVDVSHEDPEVKFNWYVDGVEVHNAKTKPREEQYNSTYRVVSVLTVLHQDWLNGKEYKCKVSNKALAAPIEKTISKAKGQPREPRVYTLPPCRDELTKNQVSLTCLVKGFYPSDIAVEWESNGQPENNYKTTPPVLVSDGSFTLYSKLTVDKSRWQQGNVFSCSVMHEALHNHYTQKSLSLSPG
notes: also called DF IL-12-Fc; hIL-12-Fc-LALAPA

Reference: patent US20230272041A1 (DRAGONFLY THERAPEUTICS, published 2023)
